Patent publication US20090017017A1 (SYMPHOGEN A S, published 2009)
Numbering of substitutions follows the chain as printed.

T1: Rhesus D antigen (human, UniProt Q02161 2-417)
T1 construct: whole, on cells; Presented on RhD(+) erythrocytes; also called RhD; RhD antigen
T1 sequence (looked up): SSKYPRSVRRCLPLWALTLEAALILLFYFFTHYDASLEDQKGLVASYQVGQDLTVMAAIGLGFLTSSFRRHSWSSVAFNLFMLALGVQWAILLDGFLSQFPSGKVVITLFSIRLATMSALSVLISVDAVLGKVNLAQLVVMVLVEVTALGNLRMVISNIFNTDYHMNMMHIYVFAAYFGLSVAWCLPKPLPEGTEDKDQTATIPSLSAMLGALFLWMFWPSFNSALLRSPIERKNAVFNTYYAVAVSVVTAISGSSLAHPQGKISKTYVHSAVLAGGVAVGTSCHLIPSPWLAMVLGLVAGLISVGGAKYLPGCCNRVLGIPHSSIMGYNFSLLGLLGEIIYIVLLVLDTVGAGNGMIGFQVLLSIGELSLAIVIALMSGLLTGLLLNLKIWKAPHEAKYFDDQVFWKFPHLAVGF

B1: RhD299.127A12 (Fab, V domains shown)
VH: QVQLVESGGGVVQPGRSLRLSCAASGFTFSNFGMHWVRQAPGKGLEWVAVIWYDGSNKDYADSVKGRFTISRDNSKRTLYLQMNSLRAEDTAVYYCARELARGRLRDLDYWGQGTLVTVSS
VL: QAVVTQEPSLTVSPGGTVTLTCASSTGAVTTGYYPNWFQQKPGQAPRALIYSTSKKHSWTPARFSGSLLGGKAALTLSGVQPEDEAEYYCLLFYGGAQLGVFGGGTKLTVLG
notes: Tested as Fab in E. coli periplasmic extract (VH on human gamma 1 CH1, vector Em351)
B2: RhD300.134H09 (Fab, V domains shown)
VH: QVQLVESGGGVVQPGRSLRLSCAASGFTFSSYGMHWVRQAPGKGLEWVAVIWYDGSNKYYADSVKGRFTISRDNSKNTLYLQMNSLRAEDTAVYYCAREFYTRSGLWSQGYSYYMDVWGKGTTVTVSS
VL: QTVVTQEPSFSVSPGGTVTLTCGLSSGSVSARYYPSWYQQTPGQPPRTLIHSTNTRSSGVPDRFSGSILGNKAALTITGAQADDESDYYCVLYMGSGPWVFGGGTKLTVLG
notes: as for B1
B3: RhD301.160A04 (Fab, V domains shown)
VH: QVQLVESGGGVVQPGRSLRLSCAASGFTFSSYGMHWVRQAPGKGLEWVAVIWFDGGNKYYADSAKGRFTISRDNSKNTLYLQMNSLRAEDTAVYYCARDASVLSGLVTRRLVYYGMDVWGQGTTVTVSS
VL: DVVMTQSPLSLPVTPGEPASISCRSSQSLLHRNGYNYLNWYLQKPGQSPQLLIYLGSNRASGVPDRFSGSGSGTDFTLKISGVEAEDVAFYYCMQGLRTPYTFGQGTKLEIKR
notes: as for B1
B4: RhD302.160B10 (Fab, V domains shown)
VH: QVQLVESGGGVVQPGRSLRLSCAASGFTFSSYGMHWVRQAPGKGLEWVAFISYDGSNKYYADSVKGRFTISRDNSKNTLSLQMNSLRAEDTAVYYCAKEHGYYRSSWYRNYYYYGMDVWGQGTTVTVSS
VL: DIQLTQSPSSLSASVGDRVTITCRASQSISSYLNWYKQRPGKAPKLLIYAASTLQSGVPSRFSGSGSGTDFALTISSLQAEDFATYYCQQTYSTLWTFGQGTKVEITR
notes: as for B1
B5: RhD303.160B11 (Fab, V domains shown)
VH: B4 VH with G15E, F50V, S80Y, E99D, H100E, G101V, Y102G, R104S, N110R, G115A
VL: EIVLTQSPGTLSLSPGETATLSCRASQSVSDRDLAWYQQKSGQSPRLLMYGGSTRAPGIPVRFSGSGSGTEFTLTISSLQSEDFAIYYCQHYHDWPPTFGQGTRLEIKR
notes: as for B1
B6: RhD304.164B06 (Fab, V domains shown)
VH: QVQLVQSGGGVVQPGRSLRLSCAASGFTFSSYGMHWVRQAPGKGLEWVAVIWYDGSNKYYADSVKGRFTISRDNSKNTLYLQMNSLRAEDTAVYYCARETVVVAAKIRNHYYYAMDVWGQGTTVTVSS
VL: DIQMTQSPSSLSASLGGTVTLTCRSSQFISRYLNWYQQHPGKVPRLLISGASRLQRGVPSRFTGGGSGTDFTLTIKNVQPDDIATYFCQHSYRSGRAFGQGTTVEVKR
notes: as for B1
B7: RhD305.181E06 (Fab, V domains shown)
VH: QVQLVESGGGVVQPGRSLRLSCAASGFTFSSYGMHWVRQAPGKGLEWVAGIWYDGSNKYYADSVKGRFTISRDNSRNTMYLQMNSLRAEDTAVYYCAREQGGYSSSWYRRYYYYNMDLWGQGTTVTVSS
VL: EIVLTQSPGSLSLSPGERATLSCRASQSVSSSYLAWYQQKPGQAPRLLIYGPSSRATGIPDRFSGSGSGTDFTLTISRLEPEDFAVYYCQHFGNSRGTFGQGTKVEIRR
notes: as for B1
B8: RhD306.223E11 (Fab, V domains shown)
VH: QVQLVESGGGVVQPGRSLRLSCAASGFTFSSYGMHWVRQAPGKGLEWVAVIWYDGSNKYYADSVKGRFTISRDNSKNTLYLQMNTLRDDDTAVYYCAREGTLYSSSWYRRYYYYGMDAWGQGTTVTVSS
VL: EIVLTQSPGTLSLSPGERVTLSCRPSRYIASDYLAWYQLRPGQAPKLLIYGASSRATGIPDRFSGVGSPTDFTLTISRLEPEDFAMYYCHYSGGSPPYPFGQGTRLDIKR
notes: as for B1
B9: RhD307.230E11 (Fab, V domains shown)
VH: QVQLVETGGGVVQPGRSLRLSCAASGFTFSSYGMHWVRQAPGKGLEWVAGIWYDGSNKYYGDSVKGRFTISRDNSRNTLYLHMNSLRADDTAVYYCAREHGGSRSGWYTLRLAYYFDYWGQGTLVTVSS
VL: DIQLTQSPSSLSASVGDRVTITCRASQYINVYLNWYQHKAGRAPKLLIYAASNLQSGVPPRFIGSGSGTDFTLTISSLQSEDFATYYCLQSFTVPRTFGPGTKVDVKR
notes: as for B1
B10: RhD317.144A02 (Fab, V domains shown)
VH: QVQLQESGPGLVKPSGTLSLTCAVSGGSIRGSNWWSWVRQPPGKGLEWIGEIHHGGSTNYNPSLKSRVTISVDKSKNRFSLKLSSVTAADTAVYYCARGTSYYDSSGYSFRGLVAFDIWGQGTMVTVSS
VL: EIVLTQSPGTLSLSPGERATLSCRASQSVSSAFLAWYQQKPGQAPRLLIYGASSRATGIPDRFSGSGSGTDFTLTISRLEPEDFAVYYCQQYGSFSITFGQGTRLEIKR
notes: as for B1
B11: RhD319.187A11 (Fab, V domains shown)
VH: QVQLVESGGGVVQPGRSLRLSCAASGFTFSTYGMHWVRQAPGKGLEWVAVIWYDGSNKNYADSVKGRFTISRDNSKNTLYLQMNSLRAEDTAVYYCARDLQGYRSSWYRMYYYYGMDVWGQGTTVTVSS
VL: B1 VL with A2T, T31S, K55N, F93Y, L99R, G100W, K107I
notes: as for B1
B12: RhD321.187G08 (Fab, V domains shown)
VH: EVQLVESGGGLVKPGGSLRLSCAASGFTFRSYSMNWVRQAPGKGLEWVSSIGSSSIYTYSADSVKGRFTISRDNAKNSLYLQMNSLRAEDTAVYYCARGEPLNYDYIWGRSRLTIHWGQGTLVTVSS
VL: LNFMLTQPHSVSESPGKTVTISCTRSSGSIASNYMQWYQQRPGSSPTTVIYEDNRRPSGVPDRFSGSIDSSSNSASLTISGLKTEDEADYYCQSYDSNNWVFGGGTKLTVLG
notes: as for B1
B13: RhD323.229B07 (Fab, V domains shown)
VH: B11 VH with T31S, N59Y, L100W, Q101V, G102T, Y103R, R104S, S106N, M110N
VL: DIQMTQSPSSLSASVGDRVTITCRASQSISSYLNWYQQKPGKAPKLLIYAASTLQSGVPSRFSGSGSGTDFTLTISSLQPEDFATYYCQQYYRTPTWTFGQGTKVEIKR
notes: as for B1
B14: RhD324.231F07 (Fab, V domains shown)
VH: EVQLVESGGGLVQPGRSLRLSCVASGFTFSSYWMHWVRQVPGKGLVWVSRINVDGKSTSYADSVKGRFTISRDNAKNTLYLQMNSLRAEDTAVYYCARDPRRFLEWARYGMDVWGRGTTVTVSS
VL: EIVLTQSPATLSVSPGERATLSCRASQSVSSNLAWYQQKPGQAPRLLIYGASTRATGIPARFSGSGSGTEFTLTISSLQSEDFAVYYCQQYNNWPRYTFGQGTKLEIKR
notes: as for B1
B15: RhD296.126A03 (Fab, V domains shown)
VH: EVQLVESGGGVVQPGRSLRLSCEASGFTFSNYGMHWFRQAPGKGLEWVAIIWYDGSNKHYADSVKGRFTISRDNSKNTLYLQMNSLRAEDTAVYFCAREIASRGYSRYLYYFDSWGQGTLVTVSS
VL: B13 VL with Y49F, T53S, T72S, Y91S, R93S, T94S, P95L, T96A, W97L, Q101G
notes: as for B1
B16: RhD160.119C07 (Fab, V domains shown)
VH: EVQLVESGGGVVQPGRSLRLSCAASGFTFSNYGMHWVRQAPGKGLEWVAVIWYDGSNRFYADSVKGRFTISRDNSKNTLYLQMNNLRAEDTALYSCAREITTTVVVRRHYLMDIWGQGTTVTVSS
VL: DIQLTQSPSSLSASVGDRVSITCRASQGISNSLAWYQQKPGKVPKLLIYAASTLQSGVPSRFSGGGSGTDFTLTISSLQPEDVATYYCQKYNSAPFAFGPGTKVDIKR
notes: as for B1
B17: RhD161.119E09 (Fab, V domains shown)
VH: EVQLVESGGGVVQSGRSLRLSCAASGFTFSNNGMHWVRQAPGKGLEWVAFIWYDGSNKYYADSVKGRFTISRDNSKNTLYLQMDGLRAEDSAVYYCAREEIAARLYSRYHYAMDVWGQGTMVTVSS
VL: DIQMTQSPSFLSASVGDRVTITCRASQGIRRYLAWFQQKPGKAPKLLIFSASTLQSGVPSRFSGSGSGTEFTLTISSLQPEDFATYYCQQLSSYPPYTFGQGTKLEIKR
notes: as for B1

Assays:
Rhesus D antigen [1] = target: T1, Rhesus D antigen; test: Fab screening on RBC (agglutination, FACS)
Protocol: (§1) After each round of panning single colonies were picked for analysis of their binding properties to red blood cells in agglutination assays. Briefly, single colonies were inoculated into 2×YT/100 μg/mL carbenicillin/1% glucose and shaken overnight at 37° C. The next day, DeepWell plates were inoculated using 900 μl 2×YT/100 μg/mL carbenicillin/0.1% glucose and 10 μl overnight culture. The plates were shaken for two hours at 37° C., before Fab induction was performed with addition of 300 μl 2×YT/100 μg/mL carbenicillin/0.25 mM IPTG per well. The plate was shaken overnight at 30° C. The following day, the bacteria were pelleted by centrifugation (3200×g, 4° C., 10 minutes), and re-suspended in 100 μl of 0.8 M NaCl, 0.2×PBS, 8 mM EDTA, and incubated for 15 minutes on ice in order to perform a periplasmic extraction of the Fab fragments. The plate was transferred to −20° C. and finally the suspension was thawed and centrifugation was performed for 10 minutes at 4° C. and 3200×g. The periplasmic extract was used in ELISA assays for analysis of Fab content and in agglutination assays to evaluate the binding potential of the individual Fab fragments.
(§2) The agglutination assay was performed as follows: RhD(−) and RhD(+) RBC were mixed in a 1:1 ratio, and washed 3 times in PBS. After the final wash, the cell mix was re-suspended in 1% BSA in PBS at a density of 10% cells, 50 μl was added to each well of a 96-plate. Periplasmic extracts were added to the wells. As a positive control Rhesogamma P immunoglobulin (Aventis) was used according to the manufacturer's instructions. The plates were incubated for one hour at room temperature with gentle shaking. The cells were washed three times with PBS, before the secondary antibody was added (goat anti-human Fab/FITC conjugate, Sigma F5512) in a 1:100 dilution. The plates were left for agglutination for one hour at room temperature without shaking. Fab fragments positive in the agglutination assay was determined by visual inspection, and recorded by taking a picture. Quantization of the binding activity of the Fab fragments was performed by FACS analysis of the agglutination samples.

Rhesus D antigen [2] = target: T1, Rhesus D antigen; test: agglutination assay, Fab periplasmic extract on RhD(+)/RhD(-) RBC mix
Protocol: as §1, §2

Binder	binding result (Rhesus D antigen [1])	binding result (Rhesus D antigen [2])
B1	binds	
B2	binds	
B3	binds	
B4	binds	
B5	binds	
B6	binds	
B7	binds	
B8	binds	
B9	binds	
B10	binds	
B11	binds	
B12	binds	
B13	binds	
B14	binds	
B15		binds
B16		binds
B17		binds
